Source: US20040091487A1

Tests used:
Test in all cases: cell-based or functional assay
[1] = biological target: HIV-1 IN within Gag-Pol (Gag-Pol polyprotein encoded by pCMVDR8.2) (HIV-1)
[2] = biological target: HIV-1 IN H12Y within Gag-Pol (pCMV-H12Y) (HIV-1)
[3] = biological target: HIV-1 IN within Gag-Pol of the molecular clone HIV-1R3B (HIV-1)

Substance	decrease in the viral titers as compared to the control [1] [fold]	inhibition of p24 production [1] [fold]	% inhibition [1] [%]	P24 of culture supernatants [1] [ng/mL]	decrease in the level of H12Y virion associated p24 production [2] [fold]	% inhibition [3] [%]	p24 of culture supernatants [3] [ng/mL]
HA-E3 (from UniProt Q12824 183-294)	2	2	–	–	–	–	–
HA-INI1 aa 1-245 (clone 27B) (from UniProt Q12824 1-245)	–	–	16	95.6	–	–	–
HA-INI1 aa 141-385 (clone 20.2) (from UniProt Q12824 141-385)	–	–	69	35.4	–	–	–
HA-S6 (HA-INI1 aa 183-294) (from UniProt Q12824 183-294)	–	80000	100	0	10	> 99.7	0.69
